Experimental data taken from article PMC5986797, “Laminin heparin-binding peptides bind to several growth factors and enhance diabetic wound healing” (Nature Communications, 2018).

Columns and labels:
[1] = tested on: recombinant human laminin isoforms (–111, –211, –332, –411, –421, –511, and –521); assay: ELISA: binding of full-length laminin isoforms to absorbed GFs and CXCL chemokines; details: 50 nM GF coated, 10 nM laminin; signals greater than 0.1 indicate binding; n = 4
Method: Ninety-six-well ELISA plates (med-binding, Greiner Bio-One) were coated with 50 nM GFs in 100 µL/well of phosphate-buffered saline (PBS) at 37 °C for more than 2 h. After blocking with 2% BSA solution containing PBS and 0.05% Tween 20 (PBS-T), 10 nM recombinant human laminin isoforms (–111, –211, –332, –411, –421, –511, and –521) (>95% purity tested by SDS-PAGE, BioLamina) in 100 µL/well PBS were added. Bound laminin was detected with 100 µL/well rabbit anti-human LAMC1 polyclonal antibody (Assay Biotech, Catalog No. C13072, 1:1000 dilution in PBS) or rabbit anti-human LAMA3 polyclonal antibody (Assay Biotech, Catalog No. C13066, 1:1000 dilution in PBS). After incubation with biotinylated anti-rabbit antibody for 60 min at room temperature (RT), HRP-conjugated streptavidin (Jackson ImmunoResearch) was added. After 60 min of incubation at RT, 50 μL of TMB substrate (Sigma-Aldrich) was added. The reactions were stopped by adding 25 μL of 2 N H2SO4. Subsequently, the absorbance at 450 nm was measured with a reference of 570 nm.

VEGF-A165 = assay: ELISA: VEGF-A165 binding to laminin LG domain / laminin peptide; parameters: species or system human; details: 1 µg/mL LG domain coated; 1 μg/mL GF; vs BSA-coated wells; n = 4
Method: ELISA tests were performed as described above. In brief, […] recombinant protein, laminin alpha 4 LG domain recombinant protein (R&D Systems), laminin alpha 5 LG domain recombinant protein (LD BioPharma), or laminin peptide (sequences are described in Supplementary Table 1, chemically synthesized by Genscript) in PBS for 2 h at 37 °C. A concentration of 1 μg/mL of BSA served as non-binding protein control. After blocking with 2% BSA PBS-0.05% Tween 20 (PBS-T) solution, 1 μg/mL of the recombinant human proteins (VEGF-A121, VEGF-A165, PlGF-1, PlGF-2, PDGF-BB, or FGF-2) or 10 μg/mL of biotinylated heparin (Sigma-Aldrich) were added. Bound GF was detected with biotinylated antibodies for human VEGF-A, PlGF, PDGF-BB (R&D Systems, Catalog No. DY220, 1:180 dilution), or FGF-2 (R&D Systems). The antibodies were detected by streptavidin-HRP (R&D Systems).

VEGF-A121 = assay: ELISA: VEGF-A121 binding to laminin LG domain / laminin peptide; parameters: species or system human; details: 1 µg/mL LG domain coated; 1 μg/mL GF; vs BSA-coated wells; n = 4
Method: (§1) ELISA tests were performed as described above. In brief, ELISA plates were coated with 1 μg/mL of laminin alpha 3 LG domain recombinant protein, laminin alpha 4 LG domain recombinant protein (R&D Systems), laminin alpha 5 LG domain recombinant protein (LD BioPharma), or laminin peptide (sequences are described in Supplementary Table 1, chemically synthesized by Genscript) in PBS for 2 h at 37 °C. A concentration of 1 μg/mL of BSA served as non-binding protein control. After blocking with 2% BSA PBS-0.05% Tween 20 (PBS-T) solution, 1 μg/mL of the recombinant human proteins (VEGF-A121, VEGF-A165, PlGF-1, PlGF-2, PDGF-BB, or FGF-2) or 10 μg/mL of biotinylated heparin (Sigma-Aldrich) were added. Bound GF was detected with biotinylated antibodies for human VEGF-A, PlGF, PDGF-BB (R&D Systems, Catalog No. DY220, 1:180 dilution), or FGF-2 (R&D Systems). The antibodies were detected by streptavidin-HRP (R&D Systems).

PlGF-2 = assay: ELISA: PlGF-2 binding to laminin LG domain / laminin peptide; parameters: species or system human; details: 1 µg/mL LG domain coated; 1 μg/mL GF; vs BSA-coated wells; n = 4
Method: as §1

PlGF-1 = assay: ELISA: PlGF-1 binding to laminin LG domain / laminin peptide; parameters: species or system human; details: 1 µg/mL LG domain coated; 1 μg/mL GF; vs BSA-coated wells; n = 4
Method: as §1

PDGF-BB = assay: ELISA: PDGF-BB binding to laminin LG domain / laminin peptide; parameters: species or system human; details: 1 µg/mL LG domain coated; 1 μg/mL GF; vs BSA-coated wells; n = 4
Method: as §1

FGF-2 = assay: ELISA: FGF-2 binding to laminin LG domain / laminin peptide; parameters: species or system human; details: 1 µg/mL LG domain coated; 1 μg/mL GF; vs BSA-coated wells; n = 4
Method: as §1

B1: BMP-7: bone morphogenetic protein, PeproTech, produced in eukaryotic cells (protein)
chain: STGSKQRSQNRSKTPKNQEALRMANVAENSSSDQRQACKKHELYVSFRDLGWQDWIIAPEGYAAYYCEGECAFPLNSYMNATNHAIVQTLVHFINPETVPKPCCAPTQLNAISVLYFDDSSNVILKKYRNMVVRACGCH
binding to all tested laminin isoforms (ELISA, A450 nm) [1]: not

B2: FGF-7: fibroblast growth factor, PeproTech (protein)
chain: CNDMTPEQMATNVNCSSPERHTRSYDYMEGGDIRVRRLFCRTQWYLRIDKRGKVKGTQEMKNNYNIMEIRTVAVGIVAIKGVESEFYLAMNKEGKLYAKKECNEDCNFKELILENHYNTYASAKWTHNGGEMFVALNQKGIPVRGKKTKKEQKTAHFLPMAIT
binding to all tested laminin isoforms (ELISA, A450 nm) [1]: bound

B3: PlGF-2: placental growth factor (PlGF)-2, PeproTech (protein)
chain: LPAVPPQQWALSAGNGSSEVEVVPFQEVWGRSYCRALERLVDVVSEYPSEVEHMFSPSCVSLLRCTGCCGDENLHCVPVETANVTMQLLKIRSGDRPSYVELTFSQHVRCECRPLREKMKPERRRPKGRGKRRREKQRPTDCHLCGDAVPRR
binding to all tested laminin isoforms (ELISA, A450 nm) [1]: bound

B4: PDGF-CC: platelet-derived growth factor, PeproTech (protein)
chain: VVDLNLLTEEVRLYSCTPRNFSVSIREELKRTDTIFWPGCLLVKRCGGNCACCLHNCNECQCVPSKVTKKYHEVLQLRPKTGVRGLHKSLTDVALEHHEECDCVCRGSTGG
binding to all tested laminin isoforms (ELISA, A450 nm) [1]: bound

B5: PlGF-1: placental growth factor, PeproTech (protein)
chain: LPAVPPQQWALSAGNGSSEVEVVPFQEVWGRSYCRALERLVDVVSEYPSEVEHMFSPSCVSLLRCTGCCGDENLHCVPVETANVTMQLLKIRSGDRPSYVELTFSQHVRCECRPLREKMKPERCGDAVPRR
binding to all tested laminin isoforms (ELISA, A450 nm) [1]: did not show binding

B6: BDNF: brain-derived neurotrophic factor, PeproTech (protein, UniProt P23560 19-247, looked up)
Neurotrophic factor BDNF …: APMKEANIRGQGGLAYPGVRTHGTLESVNGPKAGSRGLTSLADTFEHVIEELLDEDQKVRPNEENNKDADLYTSRVMLSSQVPLEPPLLFLLEEYKNYLDAANMSMRVRRHSDPARRGELSVCDSISEWVTAADKKTAVDMSGGTVTVLEKVPVSKGQLKQYFYETKCNPMGYTKEGCRGIDKRHWNSQCRTTQSYVRALTMDSKKRIGWRFIRIDTSCVCTLTIKRGR
binding to all tested laminin isoforms (ELISA, A450 nm) [1]: strong binding

B7: LAMA3_2928–3150: recombinant human LAMA3 LG domain Ser2928-Cys3150 (linker domain and LG4 domain), 6 His, HEK-293F (protein)
chain: SLNKPPFLMLLKGSTRFNKTKTFRINQLLQDTPVASPRSVKVWQDACSPLPKTQANHGALQFGDIPTSHLLFKLPQELLKPRSQFAVDMQTTSSRGLVFHTGTKNSFMALYLSKGRLVFALGTDGKKLRIKSKEKCNDGKWHTVVFGHDGEKGRLVVDGLRAREGSLPGNSTISIRAPVYLGSPPSGKPKSLPTNSFVGCLKNFQLDSKPLYTPSSSFGVSSC
modifications: left off: His6, N-terminal, state not stated
notes: recombinant human LAMA3 LG domain Ser2928-Cys3150 (linker domain and LG4 domain), 6 His, HEK-293F
binding to VEGF-A165 (ELISA), recombinant LG domains (VEGF-A165): bound
binding to VEGF-A121 (ELISA), recombinant LG domains (VEGF-A121): did not show any binding
binding to PlGF-2 (ELISA), recombinant LG domains (PlGF-2): bound
binding to PlGF-1 (ELISA), recombinant LG domains (PlGF-1): did not show any binding
binding to PDGF-BB (ELISA), recombinant LG domains (PDGF-BB): bound
binding to FGF-2 (ELISA), recombinant LG domains (FGF-2): bound

B8: FGF-10: fibroblast growth factor, PeproTech (protein)
chain: QALGQDMVSPEATNSSSSSFSSPSSAGRHVRSYNHLQGDVRWRKLFSFTKYFLKIEKNGKVSGTKKENCPYSILEITSVEIGVVAVKAINSNYYLAMNKKGKLYGSKEFNNDCKLKERIEENGYNTYASFNWQHNGRQMYVALNGKGAPRRGQKTRRKNTSAHFLPMVVHS
binding to all tested laminin isoforms (ELISA, A450 nm) [1]: bound

B9: FGF-6: fibroblast growth factor, PeproTech (protein)
chain: SPAGTRANNTLLDSRGWGTLLSRSRAGLAGEIAGVNWESGYLVGIKRQRRLYCNVGIGFHLQVLPDGRISGTHEENPYSLLEISTVERGVVSLFGVRSALFVAMNSKGRLYATPSFQEECKFRETLLPNNYNAYESDLYQGTYIALSKYGRVKRGSKVSPIMTVTHFLPRI
binding to all tested laminin isoforms (ELISA, A450 nm) [1]: did not

B10: BMP-3: bone morphogenetic protein, PeproTech (protein)
chain: QWIEPRNCARRYLKVDFADIGWSEWIISPKSFDAYYCSGACQFPMPKSLKPSNHATIQSIVRAVGVVPGIPEPCCVPEKMSSLSILFFDENKNVVLKVYPNMTVESCACR
binding to all tested laminin isoforms (ELISA, A450 nm) [1]: showed binding

B11: LAMA4_826–1816: laminin alpha 4 LG domain recombinant protein (R&D Systems) (protein)
chain: RSVASKIQVSMMFDGQSAVEVHSRTSMDDLKAFTSLSLYMKPPVKRPELTETADQFILYLGSKNAKKEYMGLAIKNDNLVYVYNLGTKDVEIPLDSKPVSSWPAYFSIVKIERVGKHGKVFLTVPSLSSTAEEKFIKKGEFSGDDSLLDLDPEDTVFYVGGVPSNFKLPTSLNLPGFVGCLELATLNNDVISLYNFKHIYNMDPSTSVPCARDKLAFTQSRAASYFFDGSGYAVVRDITRRGKFGQVTRFDIEVRTPADNGLILLMVNGSMFFRLEMRNGYLHVFYDFGFSGGPVHLEDTLKKAQINDAKYHEISIIYHNDKKMILVVDRRHVKSMDNEKMKIPFTDIYIGGAPPEILQSRALRAHLPLDINFRGCMKGFQFQKKDFNLLEQTETLGVGYGCPEDSLISRRAYFNGQSFIASIQKISFFDGFEGGFNFRTLQPNGLLFYYASGSDVFSISLDNGTVIMDVKGIKVQSVDKQYNDGLSHFVISSVSPTRYELIVDKSRVGSKNPTKGKIEQTQASEKKFYFGGSPISAQYANFTGCISNAYFTRVDRDVEVEDFQRYTEKVHTSLYECPIESSPLFLLHKKGKNLSKPKASQNKKGGKSKDAPSWDPVALKLPERNTPRNSHCHLSNSPRAIEHAYQYGGTANSRQEFEHLKGDFGAKSQFSIRLRTRSSHGMIFYVSDQEENDFMTLFLAHGRLVYMFNVGHKKLKIRSQEKYNDGLWHDVIFIRERSSGRLVIDGLRVLEESLPPTEATWKIKGPIYLGGVAPGKAVKNVQINSIYSFSGCLSNLQLNGASITSASQTFSVTPCFEGPMETGTYFSTEGGYVVLDESFNIGLKFEIAFEVRPRSSSGTLVHGHSVNGEYLNVHMKNGQVIVKVNNGIRDFSTSVTPKQSLCDGRWHRITVIRDSNVVQLDVDSEVNHVVGPLNPKPIDHREPVFVGGVPESLLTPRLAPSKPFTGCIRHFVIDGHPVSFSKAALVSGAVS
binding to VEGF-A165 (ELISA), recombinant LG domains (VEGF-A165): bound
binding to VEGF-A121 (ELISA), recombinant LG domains (VEGF-A121): did not show any binding
binding to PlGF-2 (ELISA), recombinant LG domains (PlGF-2): bound
binding to PlGF-1 (ELISA), recombinant LG domains (PlGF-1): did not show any binding
binding to PDGF-BB (ELISA), recombinant LG domains (PDGF-BB): bound
binding to FGF-2 (ELISA), recombinant LG domains (FGF-2): bound
